One substance from patent US11931406 can be followed below.

Assay [1] addresses YFV X-SS-prME-XX (yellow fever virus 17D) (yellow fever virus strain 17D) (UniProt P03314).
In assay [2] the target is influenza HA protein (Flu A HA) (influenza A).

Sequence of UniProt P03314 (P03314 92-788 limits assumed): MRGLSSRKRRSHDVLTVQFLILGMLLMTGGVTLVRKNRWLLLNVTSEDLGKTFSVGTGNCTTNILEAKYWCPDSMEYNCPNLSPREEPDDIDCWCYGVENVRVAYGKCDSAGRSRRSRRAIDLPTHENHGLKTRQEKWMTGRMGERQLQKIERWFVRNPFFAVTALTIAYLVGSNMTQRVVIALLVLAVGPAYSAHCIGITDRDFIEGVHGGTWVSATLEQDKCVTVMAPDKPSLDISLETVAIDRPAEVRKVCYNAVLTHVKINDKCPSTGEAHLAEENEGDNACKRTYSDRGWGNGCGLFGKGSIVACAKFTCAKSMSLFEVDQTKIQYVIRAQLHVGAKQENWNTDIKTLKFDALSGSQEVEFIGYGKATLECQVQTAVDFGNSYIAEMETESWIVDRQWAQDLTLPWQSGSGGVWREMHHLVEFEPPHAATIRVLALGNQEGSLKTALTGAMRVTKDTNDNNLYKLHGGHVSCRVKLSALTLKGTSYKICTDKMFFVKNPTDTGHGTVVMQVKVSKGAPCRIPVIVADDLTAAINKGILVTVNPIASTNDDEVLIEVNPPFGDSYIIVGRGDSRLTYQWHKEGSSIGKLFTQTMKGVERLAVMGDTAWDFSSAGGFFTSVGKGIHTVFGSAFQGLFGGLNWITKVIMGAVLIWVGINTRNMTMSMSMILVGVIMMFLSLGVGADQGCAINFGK

Regarding “anti YF virus specific antibody (sc-58083 from Santa Cruz)”, the FITC positive cells in assay [1] was 82%; in assay [2], 45.1%.
